# In the supplement of paper PMC11316812:
# ± gives the standard deviation of the averaged measurements.
# Legend:
# MCF7 = assay: percentage of EdU-negative (G0-arrested) nuclei per well, 72 h; higher = more G0 arrest; details: reference: sequence is the full UniProt precursor, the tested protein was the secreted form or ectodomain
# hTERT-HMEC = assay: as above; details: reference: sequence is the full UniProt precursor, the tested protein was the secreted form or ectodomain
# [1] = protein concentration 0.0225 µM
# [2] = protein concentration 0.0357143 µM
# [3] = protein concentration 0.357143 µM
# [4] = protein concentration 0.03125 µM
# [5] = protein concentration 0.3125 µM
# [6] = protein concentration 0.00771429 µM
# [7] = protein concentration 0.0771429 µM
# 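Also: secreted proteins added to cultured cells, EdU pulse at the end, nuclei found by Hoechst imaging, EdU status from nuclear versus surrounding ring intensity ratio, PBS as neutral control.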
sequence,measurement,setting,value
MLPPPRPAAALALPVLLLLLVVLTPPPTGARPSPGPDYLRRGWMRLLAEGEGCAPCRPEECAAPRGCLAGRVRDACGCCWECANLEGQLCDLDPSAHFYGHCGEQLECRLDTGGDLSRGEVPEPLCACRSQSPLCGSDGHTYSQICRLQEAARARPDANLTVAHPGPCESGPQIVSHPYDTWNVTGQDVIFGCEVFAYPMASIEWRKDGLDIQLPGDDPHISVQFRGGPQRFEVTGWLQIQAVRPSDEGTYRCLGRNALGQVEAPASLTVLTPDQLNSTGIPQLRSLNLVPEEEAESEENDDYY [Q96I82],percentage of EdU-negative,MCF7; [1],25.7 ± 0.96%
same,percentage of EdU-negative,MCF7; protein concentration 0.225 µM,28.1 ± 2.9%
same,percentage of EdU-negative,hTERT-HMEC; [1],5.43 ± 0.24%
same,percentage of EdU-negative,hTERT-HMEC; protein concentration 0.225 µM,5.18 ± 0.4%
MLTTLLPILLLSGWAFCSQDASDGLQRLHMLQISYFRDPYHVWYQGNASLGGHLTHVLEGPDTNTTIIQLQPLQEPESWARTQSGLQSYLLQFHGLVRLVHQERTLAFPLTIRCFLGCELPPEGSRAHVFFEVAVNGSSFVSFRPERALWQADTQVTSGVVTFTLQQLNAYNRTRYELREFLEDTCVQYVQKHISAENTKGSQTSRSYTSLVLGVLVGSFIIAGVAVGIFLCTGGRRC [Q9UNN8],percentage of EdU-negative,MCF7; [2],24.2 ± 1.7%
same,percentage of EdU-negative,MCF7; [3],25.3 ± 1.2%
same,percentage of EdU-negative,hTERT-HMEC; [2],4.92 ± 0.17%
same,percentage of EdU-negative,hTERT-HMEC; [3],6.22 ± 0.072%
MTPALTALLCLGLSLGPRTRVQAGPFPKPTLWAEPGSVISWGSPVTIWCQGSLEAQEYQLDKEGSPEPLDRNNPLEPKNKARFSIPSMTQHHAGRYRCHYYSSAGWSEPSDPLELVMTGFYNKPTLSALPSPVVASGGNMTLRCGSQKGYHHFVLMKEGEHQLPRTLDSQQLHSGGFQALFPVGPVTPSHRWRFTCYYYYTNTPRVWSHPSDPLEILPSGVSRKPSLLTLQGPVLAPGQSLTLQCGSDVGYDRFVLYKEGERDFLQRPGQQPQAGLSQANFTLGPVSPSHGGQYRCYGAHNLSSEWSAPSDPLNILMAGQIYDTVSLSAQPGPTVASGENVTLLCQSRGYFDTFLLTKEGAAHPPLRLRSMYGAHKYQAEFPMSPVTSAHAGTYRCYGSYSSNPHLLSFPSEPLELMVSGHSGGSSLPPTGPPSTPASHAKDYTVENLIRMGMAGLVLVFLGILLFEAQHSQRNPQDAAGR [Q6PI73],percentage of EdU-negative,MCF7; [1],22.6 ± 0.32%
same,percentage of EdU-negative,MCF7; protein concentration 0.225 µM,24.9 ± 4.2%
same,percentage of EdU-negative,hTERT-HMEC; [1],5.69 ± 0.33%
same,percentage of EdU-negative,hTERT-HMEC; protein concentration 0.225 µM,5.12 ± 0.84%
MKTLFLGVTLGLAAALSFTLEEEDITGTWYVKAMVVDKDFPEDRRPRKVSPVKVTALGGGNLEATFTFMREDRCIQKKILMRKTEEPGKFSAYGGRKLIYLQELPGTDDYVFYCKDQRRGGLRYMGKLVGRNPNTNLEALEEFKKLVQHKGLSEEDIFMPLQTGSCVLEH [Q9NY56],percentage of EdU-negative,MCF7; [4],25.1 ± 0.74%
same,percentage of EdU-negative,MCF7; [5],25.7 ± 0.44%
same,percentage of EdU-negative,hTERT-HMEC; [4],5 ± 0.88%
same,percentage of EdU-negative,hTERT-HMEC; [5],6.83 ± 0.95%
MWPLTVPPPLLLLLCSGLAGQTLFQNPEEGWQLYTSAQAPDGKCICTAVIPAQSTCSRDGRSRELRQLMEKVQNVSQSMEVLELRTYRDLQYVRGMETLMRSLDARLRAADGSLSAKSFQELKDRMTELLPLSSVLEQYKADTRTIVRLREEVRNLSGSLAAIQEEMGAYGYEDLQQRVMALEARLHACAQKLGCGKLTGVSNPITVRAMGSRFGSWMTDTMAPSADSRVWYMDGYYKGRRVLEFRTLGDFIKGQNFIQHLLPQPWAGTGHVVYNGSLFYNKYQSNVVVKYHFRSRSVLVQRSLPGAGYNNTFPYSWGGFSDMDFMVDESGLWAVYTTNQNAGNIVVSRLDPHTLEVMRSWDTGYPKRSAGEAFMICGVLYVTNSHLAGAKVYFAYFTNTSSYEYTDVPFHNQYSHISMLDYNPRERALYTWNNGHQVLYNVTLFHVISTSGDP,percentage of EdU-negative,MCF7; [6],24.6 ± 2.2%
same,percentage of EdU-negative,MCF7; [7],29 ± 4.7%
same,percentage of EdU-negative,hTERT-HMEC; [6],4.89 ± 0.63%
same,percentage of EdU-negative,hTERT-HMEC; [7],5.22 ± 0.46%
MLLLGAVLLLLALPGHDQETTTQGPGVLLPLPKGACTGWMAGIPGHPGHNGAPGRDGRDGTPGEKGEKGDPGLIGPKGDIGETGVPGAEGPRGFPGIQGRKGEPGEGAYVYRSAFSVGLETYVTIPNMPIRFTKIFYNQQNHYDGSTGKFHCNIPGLYYFAYHITVYMKDVKVSLFKKDKAMLFTYDQYQENNVDQASGSVLLHLEVGDQVWLQVYGEGERNGLYADNDNDSTFTGFLLYHDTN,percentage of EdU-negative,MCF7; [4],26.2 ± 2.3%
same,percentage of EdU-negative,MCF7; [5],25.6 ± 1.1%
same,percentage of EdU-negative,hTERT-HMEC; [4],5.07 ± 0.4%
same,percentage of EdU-negative,hTERT-HMEC; [5],5.02 ± 0.22%
MPAVFMLASSSALQCGRGVPRFPRTEVGAGHSVNEETKAEKVGNQTSVIPATSRQAALGTSWTQRRTQPLQERSHWHPRGNNASGMGGHRMFPGPLRGPAAQVLENECGSLGRAAEGRS [Q8N2X6],percentage of EdU-negative,MCF7; [1],24.5 ± 1.8%
same,percentage of EdU-negative,MCF7; protein concentration 0.225 µM,24.7 ± 0.9%
same,percentage of EdU-negative,hTERT-HMEC; [1],4.66 ± 0.059%
same,percentage of EdU-negative,hTERT-HMEC; protein concentration 0.225 µM,4.77 ± 0.18%
